Legend:
[1] = test system: MPXV A29 protein (mpox virus); assay: SPR
[2] = test system: MPXV A29 protein;anti-A29 IgG antibody (mpox virus;); assay: single-molecule nanopore, Hill fit; conditions: 5'-phosphate on aptamer probe, ligated into carrier
[3] = test system: MPXV A29 protein;anti-A29 IgG antibody (mpox virus;); assay: single-molecule nanopore; conditions: 5'-phosphate on aptamer probe, ligated into carrier
[4] = test system: VZV protein;anti-A29 IgG antibody (Varicella zoster virus;); assay: single-molecule nanopore; conditions: 5'-phosphate on aptamer probe, ligated into carrier
[5] = test system: VACV A27 protein;anti-A29 IgG antibody (Vaccinia virus (Copenhagen?);); assay: single-molecule nanopore; conditions: 5'-phosphate on aptamer probe, ligated into carrier
[6] = test system: anti-A29 IgG antibody; assay: single-molecule nanopore; conditions: 5'-phosphate on aptamer probe, ligated into carrier
[7] = test system: MPXV A29 protein;anti-A29 IgG antibody (mpox virus;); assay: single-molecule nanopore; conditions: 5'-phosphate on aptamer probe, ligated into carrier; remark: listed apart in the source

Sequence | Kd [1] | other results
AGCACTCCACGCATAACCGGTGGGCGGGGGATGTGGGAAGGTATCGGGGTTGCGTTATGCGTGCTACCGT [HIM-A29-5] | 8.49 nM | 
AGCACTCCACGCATAACGGAGCCGGGGGGCCTTGGGGGATGCAGCTTCGAAGTGTTATGCGTGCTACCGT [HIM-A29-2] | 35.4 nM | 
AGCACTCCACGCATAACGGGGGAGGAGGAGGATGTTATTGGGTGGGCGGGTTTGTTATGCGTGCTACCGT [HIM-A29-4] | 18.6 nM | 
AGCACTCCACGCATAACGGGGGAGGAGGAGGTTCACTTTGGGCGGGTGGGAATGTTATGCGTGCTACCGT [HIM-A29-3] | 12.4 nM | 
AGCACTCCACGCATAACGGGGTCTGGTGGTCTGGCTGGTTTGGGGGTTTGGTCGTTATGCGTGCTACCGT [HIM-A29-1] | 10.8 nM | 
CACGCATAACGTCTTGCGGGGCGGCGGGTTGAGAGGATGTCGGGTGGTTATGCGTG [HIM-A29-6] | < 10 nM | 
CACTGCGCCGGTATCGATATATTTTTTCACGCATAACGTCTTGCGGGGCGGCGGGTTGAGAGGATGTCGGGTGGTTATGCGTG / AAACCACTCAAGTTTGCCAACCAAATGTATATCGATACCGGCGCAGTG [9.1 kbp DNA molecular probe with HIM-A29-6] |  | Kd [2]: 0.0823 nM; binding signal (% events with subpeak) [3]: 3.98; binding signal (% events with subpeak) [4]: 0; binding signal (% events with subpeak) [5]: 0.01; binding signal (% events with subpeak) [6]: 0.01; binding signal (% events with subpeak) [7]: 3.98

Source: paper PMC10755749
